{"source": "IntAct's records for PubMed 19074269", "parents": {"B1": {"name": "Basic leucine zipper transcriptional factor ATF-like 2 (Homo sapiens), Q8N1L9-1 (parent)", "chain": "MHLCGGNGLLTQTDPKEQQRQLKKQKNRAAAQRSRQKHTDKADALHQQHESLEKDNLALRKEIQSLQAELAWWSRTLHVHERLCPMDCASCSAPGLLGCWDQAEGLLGPGPQGQHGCREQLELFQTPGSCYPAQPLSPGPQPHDSPSLLQCPLPSLSLGPAVVAEPPVQLSPSPLLFASHTGSSLQGSSSKLSALQPSLTAQTAPPQPLELEHPTRGKLGSSPDNPSSALGLARLQSREHKPALSAATWQGLVVDPSPHPLLAFPLLSSAQVHF"}}, "data": [{"variants_of": "B1", "conditions": "with jun_human JUN", "values": [{"variant": "MHLCGGNGLLTQTDPKEQQRQLKKQKNRAAAQRSRQKHTDKADALHQQHESLEKDNLAPRKEIQSLQAELAWWSRTLHVHERLCPMDCASCSAPGLLGCWDQAEGLLGPGPQGQHGCREQLELFQTPGSCYPAQPLSPGPQPHDSPSLLQCPLPSLSLGPAVVAEPPVQLSPSPLLFASHTGSSLQGSSSKLSALQPSLTAQTAPPQPLELEHPTRGKLGSSPDNPSSALGLARLQSREHKPALSAATWQGLVVDPSPHPLLAFPLLSSAQVHF", "note": "[L59P]", "effect of a mutation on the interaction": "disrupting interaction"}]}]}
